Reference: patent US11192948B2, “Compositions and methods for inhibiting cancer stem cells” (MedImmune Limited, priority 2015, dated 2021)

What was measured:
Cytivia cardiomyocytes = test: Doxorubicin-mediated cardiomyocyte damage (calcium, viability imaging); format: cell-based
Procedure: Next, we sought to determine if inhibiting LOX1 could block doxorubicin-mediated cardiomyocyte damage. Cytivia™ cardiomyocytes were purchased from GE Healthcare and plated following manufacturer's instructions with the substitution of bovine fibronectin for human fibronectin. Cells were allowed to adhere for 4 days and then medium was changed. At days 5-7, medium was removed and cells were pre-incubated with the indicated concentration of LX5140110 for 4 hours prior to the addition of 5 μM doxorubicin (DOX). After addition of DOX, cells were incubated for a further 24 hours. After incubation, media was removed and cells were stained with DAPI (1:4000 dilution of 1 mg/mL), TOTO-3 (1 uL of dye solution per 1 mL of medium), and 5 μM Fluo-4. Cells were incubated for 1 hour at 37° C. and then imaged on Image on GE IN Cell Analyzer. Viability was determined by obtaining the number of cells excluding DAPI and TOTO-3 dyes while Fluo-4 was used to determine calcium concentrations. It is known that cardiomyocytes show an increase in calcium load during endotoxin induced cardiac dysfunction. (Thompson et al., Pediatric Research (2000) 47: 669-676).

Pan02.13 cells [1] = test: Pan02.13 cell growth under standard tissue culture conditions; format: cell-based; settings: 100 ng/mL; P<0.001
From the text: (§1) Given that chemotherapies and even some targeted therapies can enrich for CSCs despite the reductions in tumor burden, combination approaches using a CSC-specific targeted therapy in combination with these agents becomes an attractive approach to treatment of cancer patients. Since LX5140110 targets CSCs specifically, we sought to address the combined effects of the current standard of care chemotherapy for pancreatic cancer, gemcitabine, and LX5140110. First the ability of gemcitabine to inhibit the Pan02.13 was tested. Pan02.13 cells were plated under standard tissue culture conditions with and without 100 ng/mL gemcitabine in a tissue culture coated flat-bottomed plate (n=10). […] To determine the effects of treatments on CSCs, Pan02.13 was treated in standard tissue culture conditions for 4 days with either 50 μg/mL of LX5140110 or a control antibody and with or without 100 ng/mL of gemcitabine (GEM) then analyzed for the percentage of CSCs by flow cytometry. The percentage of CSCs (EpCAM+CD24+CD44+) was determined for each treatment condition. The cells were first gated for single, viable cells using scatter and DAPI. Fluorescence minus one (FMO) controls were utilized for gating, with the EpCAM+population analyzed for CD44 and CD24 expression.

Pan02.13 cells [2] = test: Percentage of CSCs (EpCAM+CD24+CD44+) in Pan02.13 by flow cytometry; format: cell-based; settings: 4 days; for effect of single agent on percentage of CSCs: LX5140110 50 μg/mL or gemcitabine 100 ng/mL
From the text: as §1

PA-0143 PDX tumors = test: In vivo study with PA-0143 PDX tumors; set-up: species or system NSG mice
Procedure: An in vivo study with PA-0143, was run to determine the ability of LX5140110 to inhibit CSCs in vivo. PA-0143 PDX tumors were passaged by trocar implantation of tumor fragments into 6-8 week old NSG mice (NOD.Cg-Prkdc^scid Il2rg^tmIWjl/SzJ) and allowed to grow to −300 mm^3 at which point they were randomized and treated with subcutaneous injections of either a control IgG1 mAb or LX5140110 at 30 mg/kg twice-weekly for 2 weeks (FIG. 8A). […] Twenty-four hours after the last dose of antibodies, tumors were removed from a subset of the mice and analyzed for the percentage of CSCs.

pancreatic cell lines = test: Inhibition of CSCs in pancreatic cell lines; format: cell-based; settings: multiple pancreatic cell lines
From the text: To further confirm the ability of a LOX1 inhibitor to inhibit CSC sphere formation, a LOX1-specific monoclonal antibody (mAb), LX5140110, which comprises a VL comprising SEQ ID NO: 33 and a VH comprising SEQ ID NO: 4 (see, e.g., Table 1), was compared to STEM0268 for their ability to inhibit sphere formation in the pancreatic PDX models.

[3] = system: PA-0165 pancreatic PDX CSCs; test: Tumor sphere formation of pancreatic PDX model PA-0165; format: cell-based, human; settings: compared to STEM0268
Procedure: STEM0268 inhibits cancer stem cells. […] Briefly, cells were dissociated using 200 units/mL of collagenase IV plated, washed counted and resuspended at 30,000 cells/mL in MSCGM (Lonza) and plated in an ultra-low attachment 6-well plate. Antibodies were added to appropriate wells at 50 μg/mL. Following incubation for 4 days, spheres were harvested, dissociated and replated in a similar manner to generate secondary spheres and assess the ability of CSCs to self-renew. […] Salinomycin (1 μM) served as the positive control in both of these experiments (Gupta P B et al. 2009).

colorectal cell lines = test: Inhibition of CSCs in colorectal cell lines; format: cell-based
[4] = system: PA-0143 pancreatic PDX CSCs; test: Tumor sphere formation of pancreatic PDX model PA-0143; format: cell-based, human; settings: compared to STEM0268
Procedure: DARPins showing the preferred binding patterns were screened for their ability to inhibit sphere formation using one of the pancreatic PDX models (PA-0143) used for selections. Briefly, following dissociation of the tumor cells they were plated in 96-well ultra-low attachment plates containing MSCGM with 50 ug/mL DARPins. All DARPins were tested in triplicate. After 4 days plates were read and inhibitory molecules were identified as showing inhibitory activity at least 1 standard deviation (SD) from the mean of the untreated and control DARPin-treated wells. A second assay based on expression of EZH2 in CSCs was also run. We have previously shown in pancreatic cancer that CSCs can be identified based on their high expression of EZH2 and trimethylation of histone 3 on lysine 27 (Van Vlerken L et al. 2013 EZH2 is required for breast and pancreatic cancer stem cell maintenance and can be used as a functional cancer stem cell reporter Stem Cells Transl Med 2(1):43-52). Using HPAC cells, the EZH2 assay was performed as previously described with the inclusion of 50 μg/mL DARPin. […]
STEM0268 inhibits cancer stem cells. […] Briefly, cells were dissociated using 200 units/mL of collagenase IV plated, washed counted and resuspended at 30,000 cells/mL in MSCGM (Lonza) and plated in an ultra-low attachment 6-well plate. […]

[5] = 50 μg/mL with 100 ng/mL gemcitabine
[6] = 4 hours pre-incubation before 5 μM DOX

## COc1cccc2c1C(=O)c1c(O)c3c(c(O)c1C2=O)C[C@@](O)(C(=O)CO)C[C@@H]3O[C@H]1C[C@H](N)[C@H](O)[C@H](C)O1 [DOX, doxorubicin, reference compound]
Cytivia cardiomyocytes; 5 μM DOX, 24 hours
  viability of cardiomyocytes: decreased viability
Cytivia cardiomyocytes; 5 μM DOX, 24 hours, compared to untreated controls
  increase of calcium concentration: approximately 2.5 fold

## Nc1ccn([C@@H]2O[C@H](CO)[C@@H](O)C2(F)F)c(=O)n1 [gemcitabine, reference compound]
Pan02.13 cells [1]
  cell numbers: significant reduction in cell numbers
Pan02.13 cells [2]
  effect of single agent on percentage of CSCs: enriched for CSCs

B1: LX5140110: LOX1-specific monoclonal antibody; VH SEQ ID NO: 4, VL SEQ ID NO: 33 (antibody, V domains shown)
VH: QVQLVQSGAEVKKPGASVKVSCKVSGYTLTELSMHWVRQAPGKGLEWMGGFDPEDFKYHTHQKFQGRVTMTEDTSTDTAYMELSSLRSEDTAVYYCALVWGTQGKGVRGWDYYYGMDVWGQGTTVTVSS
VL: QSVVTQPPSVSGAPGQRVTISCTGSSSNIGAGYDVHWYQQLPGTAPKLLIYGNSNRPSGVPDRFSGSKSGTSASLAITGLQAEDEADYYCQSYDSSLSGWVFGGGTKLTVL
modifications: LX5140110 Heavy Chain sequence; LX5140110 Light Chain sequence
PA-0143 PDX tumors; 30 mg/kg subcutaneous twice-weekly for 2 weeks, vs vehicle and control IgG1, P<0.001
  tumor growth: only slightly reduced tumor growth
PA-0143 PDX tumors; 24 hours after last dose, compared to vehicle control
  percentage of CSCs in tumors: significant reduction of CSCs
Pan02.13 cells [2]; [5]
  effect on gemcitabine-induced enrichment of CSCs: inhibited this increase
  percentage of CSCs of viable cells: 0.62%
Pan02.13 cells [2]
  effect of single agent on percentage of CSCs: slight reduction of CSCs
Pancreatic cell lines
  inhibition of CSCs: able to inhibit CSCs
[3]
  inhibition of sphere formation (in words): inhibited sphere formation
Colorectal cell lines
  inhibition of CSCs: able to inhibit CSCs
[4]
  inhibition of sphere formation (in words): inhibited sphere formation
Cytivia cardiomyocytes; [6]
  effect on DOX-induced accumulation of calcium: able to inhibit the accumulation of calcium
  effect on DOX-induced decrease of viability: reversed
